For this experiment, the target named is T1, IL-17AA homodimer (human, UniProt Q16552 24-155).
T1 construct: also called IL-17A homodimer
T1 sequence: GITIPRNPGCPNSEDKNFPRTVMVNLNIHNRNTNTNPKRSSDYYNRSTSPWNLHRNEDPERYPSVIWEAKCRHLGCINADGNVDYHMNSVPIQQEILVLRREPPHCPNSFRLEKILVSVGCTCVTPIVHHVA
Kind of experiment: ELISA, plate coated with IL-17AA; reference of the relative-potency calculation.

Results on one molecule are retold here after patent publication US20180079807A1 (Genentech, published 2018).

B1: anti-IL-17A/F antibody MCAF5352A, Reference Material (composition comprising 2% of the glycosylation variant) (antibody, human IgG1, kappa, V domains shown)
VH: EVQLVESGGGLVQPGRSLRLSCAASGFTFDDYAMHWVRQAPGKGLEWVSGINWSSGGIGYADSVKGRFTISRDNAKNSLYLQMNSLRAEDTALYYCARDIGGFGEFYWNFGLWGRGTLVTVSS
VL: not shown
notes: Produced in CHO cells; Predominantly the main species, which is not glycosylated in the variable region, with about 2% Peak 1; also called antibody standard; sample with 2% glycosylation variants
In the case of B1, the binding result is reported as “binds”.
